Assay results published in PMC8708666 (2021).

biological target: Integrin alpha1beta1 (Homo sapiens, UniProt P56199); test: MST
Sequence (P56199 29-1141, chain 1 of 2): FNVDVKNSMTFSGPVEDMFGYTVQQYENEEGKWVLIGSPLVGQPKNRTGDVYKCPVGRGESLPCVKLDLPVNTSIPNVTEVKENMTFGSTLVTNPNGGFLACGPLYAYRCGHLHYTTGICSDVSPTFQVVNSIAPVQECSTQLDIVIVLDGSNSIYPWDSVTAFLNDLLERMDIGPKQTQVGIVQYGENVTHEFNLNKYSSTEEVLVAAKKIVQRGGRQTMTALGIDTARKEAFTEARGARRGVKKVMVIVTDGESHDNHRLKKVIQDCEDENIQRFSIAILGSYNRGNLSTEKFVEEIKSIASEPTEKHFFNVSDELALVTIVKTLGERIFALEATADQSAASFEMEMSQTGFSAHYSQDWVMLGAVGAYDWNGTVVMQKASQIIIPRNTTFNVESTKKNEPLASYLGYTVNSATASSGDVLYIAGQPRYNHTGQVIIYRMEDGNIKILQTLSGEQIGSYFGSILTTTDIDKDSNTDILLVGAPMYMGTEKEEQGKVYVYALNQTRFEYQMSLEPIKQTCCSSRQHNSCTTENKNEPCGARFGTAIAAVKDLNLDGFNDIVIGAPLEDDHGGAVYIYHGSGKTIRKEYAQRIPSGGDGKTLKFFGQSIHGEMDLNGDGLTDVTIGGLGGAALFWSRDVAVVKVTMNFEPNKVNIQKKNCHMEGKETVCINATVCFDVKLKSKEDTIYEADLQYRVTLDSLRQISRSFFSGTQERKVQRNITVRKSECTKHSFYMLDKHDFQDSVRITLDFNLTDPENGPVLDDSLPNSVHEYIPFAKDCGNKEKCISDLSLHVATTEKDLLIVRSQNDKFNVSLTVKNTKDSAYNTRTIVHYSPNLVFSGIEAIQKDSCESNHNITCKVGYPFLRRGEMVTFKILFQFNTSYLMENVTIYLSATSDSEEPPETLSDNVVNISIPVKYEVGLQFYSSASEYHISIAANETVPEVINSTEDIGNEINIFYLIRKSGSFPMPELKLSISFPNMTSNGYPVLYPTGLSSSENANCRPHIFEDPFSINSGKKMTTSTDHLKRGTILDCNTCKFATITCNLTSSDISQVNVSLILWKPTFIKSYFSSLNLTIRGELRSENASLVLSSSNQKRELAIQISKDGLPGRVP
Sequence (chain, as listed by the source, chain 2 of 2): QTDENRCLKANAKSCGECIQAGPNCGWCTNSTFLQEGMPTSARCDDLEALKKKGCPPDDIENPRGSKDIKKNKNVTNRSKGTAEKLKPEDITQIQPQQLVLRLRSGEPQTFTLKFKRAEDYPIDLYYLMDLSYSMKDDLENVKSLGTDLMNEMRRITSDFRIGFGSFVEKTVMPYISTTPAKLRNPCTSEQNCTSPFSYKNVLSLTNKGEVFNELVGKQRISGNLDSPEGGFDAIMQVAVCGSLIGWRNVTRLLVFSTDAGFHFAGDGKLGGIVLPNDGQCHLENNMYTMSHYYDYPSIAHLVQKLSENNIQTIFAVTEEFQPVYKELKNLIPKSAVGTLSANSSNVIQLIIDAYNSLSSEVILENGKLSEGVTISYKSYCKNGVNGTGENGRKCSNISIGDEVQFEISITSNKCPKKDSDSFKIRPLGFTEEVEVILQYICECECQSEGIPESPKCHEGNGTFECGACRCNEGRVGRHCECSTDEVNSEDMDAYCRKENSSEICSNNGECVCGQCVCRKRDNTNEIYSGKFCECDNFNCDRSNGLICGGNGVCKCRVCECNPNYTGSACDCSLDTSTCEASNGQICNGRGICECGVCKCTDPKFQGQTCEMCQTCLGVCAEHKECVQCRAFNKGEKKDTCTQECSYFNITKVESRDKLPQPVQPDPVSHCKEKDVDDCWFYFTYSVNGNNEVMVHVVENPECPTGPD

| Binder | Kd [µM] |
| --- | --- |
| LAPGSFKGMK [Collagen alpha-6(IV) chain peptide 4] | 59.2 |
| FKGTKGRDGL [Collagen alpha-6(IV) chain peptide 25] | 351 |
| NKESGFPGLR [Collagen alpha-6(IV) chain peptide 8] | 1470 |
| GPPGSIVKKG [Collagen alpha-6(IV) chain peptide 19] | 2190 |
| DPGFPGMKGK [Collagen alpha-6(IV) chain peptide 30] | 19.7 |
| KGARGDRGSG [Collagen alpha-6(IV) chain peptide 10] | 47.3 |
| GFQGEKGVKG [Collagen alpha-6(IV) chain peptide 5] | 790 |
